Laboratory results reported in patent US20140194361A1, “Vault Agents for Treating Chronic Kidney Disease” (priority 2010, published 2014).

Biological target: α5β1 integrin receptor on primary mesangial cells
Test: cell-based or functional assay

D-vault (CGRGDSP peptide-INT packaged in purified vault)
inhibition of attachment of MC to fibronectin compared to untreated MC: 1.7 fold
